Experimental findings from PMC4304707, “Regulation of Oncogene Expression in T-DNA-Transformed Host Plant Cells” are described below.

The target of this data set is T1, 6xHis-WRKY40 (Arabidopsis thaliana, UniProt Q9SAH7 1-302).
T1 sequence: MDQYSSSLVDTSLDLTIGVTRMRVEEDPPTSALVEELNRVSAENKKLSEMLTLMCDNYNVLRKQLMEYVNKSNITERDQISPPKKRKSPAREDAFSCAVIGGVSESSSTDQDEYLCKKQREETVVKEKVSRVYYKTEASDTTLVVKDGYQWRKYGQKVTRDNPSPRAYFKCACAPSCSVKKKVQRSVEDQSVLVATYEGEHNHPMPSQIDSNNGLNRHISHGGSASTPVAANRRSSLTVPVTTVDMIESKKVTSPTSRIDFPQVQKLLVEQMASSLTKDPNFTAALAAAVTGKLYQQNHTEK
Briefly: EMSA; 150 ng weak band, 300 ng much stronger band; about 5 ng probe; unlabeled probe competitor significantly reduced binding. The conditions noted are these: protein: recombinant; tags: N-terminal 6xHis (pET28b, NdeI/XhoI); label: 32P 5' end (T4 PNK); blunt (implied by two complementary oligonucleotides). A general note: Mobility shift assays separate free from complexed probe on a gel.

B1: Ipt promoter probe (-184 to -135) (dsDNA)
DNA 1: GATTTAGTCAGCCTTATTTGACTTAAGGGTGCCCTCGTTAGTGACAAATT
DNA 2: AATTTGTCACTAACGAGGGCACCCTTAAGTCAAATAAGGCTGACTAAATC
For B1, the binding result is reported as “binds”.
